± gives the standard deviation of the averaged measurements.
Key:
[1] = tested on: VchCAST RNA-guided transposition machinery (E. coli BL21(DE3) host, lacZ target); assay: relative integration efficiency (T-RL orientation) vs wild-type transposon end (log2 (normalized fold change)); transposon end mutated: right end (5 bp flank + 75 bp right end); higher = more efficient transposition
Summary of the method: (§1)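 Each barcoded pool, 1549 left-end or 1849 right-end transposon variants in a pUC57 mini-transposon donor, went into E. coli BL21(DE3) with a T7-driven effector plasmid (CRISPR array, tniQ-cas8-cas7-cas6, tnsA-tnsB-tnsC). Plates contained 0.1 mM IPTG and were held at 37°C for 18 h. Input plasmids and genomic integration junctions were PCR-amplified and read by Illumina sequencing, with two biological output replicates and four reference barcodes. Relative integration efficiency is the fold change of output over input barcode abundance, normalised to the reference barcodes and log-transformed.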

[2] = tested on: VchCAST RNA-guided transposition machinery (E. coli BL21(DE3) host, lacZ target); assay: relative integration efficiency (T-LR orientation) vs wild-type transposon end (log2 (normalized fold change)); transposon end mutated: right end (5 bp flank + 75 bp right end); higher = more efficient transposition
Summary of the method: as §1

Sequence: ACATTTGCTGATAGAACCATTTAATGATAATAACACCCATAAAATGATAATTATCACACCCAATTTAACTATAACGCTCTGATCATAGTCAGACCAACATTGCTACGACCCGTATTCGCACCGACAC
- relative integration efficiency (log2) [1]: -3.66 ± 0.41
- relative integration efficiency (log2) [2]: -2.38 ± 0.95

Sequence: ACATTTGGGGATACAACCATAAAATGATAATTACACCCATAAATTGATAATTATCACACCCATAAATTGATATTGCCTCTGATCATAGTCAGACCAACATTGCTACGACCCGTATTCGCACCGACAC
- relative integration efficiency (log2) [1]: -6.43 ± 0.081
- relative integration efficiency (log2) [2]: -5.49 ± 0.94

Sequence: ACATTTGGGTCTACAACCATAAAATGATAATTACACCCATAAATTGATAATTATCACACCCATAAATTGATATTGCCTCTGATCATAGTCAGACCAACATTGCTACGACCCGTATTCGCACCGACAC
- relative integration efficiency (log2) [1]: -7.19 ± 1.1
- relative integration efficiency (log2) [2]: -4.93 ± 0.96

Sequence: ACATTTGGTGATACAACCATATAATGATAATAACACCCATAAAATGATAATTATCACACCCAATTTAACTATAACGCTCTGATCATAGTCAGACCAACATTGCTACGACCCGTATTCGCACCGACAC
- relative integration efficiency (log2) [1]: -6.35 ± 0.32
- relative integration efficiency (log2) [2]: -3.69 ± 0.97

Sequence: ACATTTGTAAAAAAAACCATACGTTGATTTTACGAAACCATACGCTGAAATAAAAACAACCATACCTTGAAATTGCCTCTGATCATAGTCAGACCAACATTGCTACGACCCGTATTCGCACCGACAC
- relative integration efficiency (log2) [1]: -6.84 ± 0.49
- relative integration efficiency (log2) [2]: -4.82 ± 1.9

Sequence: ACATTTGTAAAAAAAACCATACGTTGATTTTACGAAACCATACGCTGAAATAAAAACAACCATACCTTGAAATTGCTTATAAAGTGTACAACACTTGAGAAAGTTTACTACAGGTATGCACCGACAC
- relative integration efficiency (log2) [1]: -7.441 ± 0.019
- relative integration efficiency (log2) [2]: < -10

Sequence: ACATTTGTAAAAAAAACCATACGTTGATTTTACGAAACCATACGCTGAAATAATCACAACCATAAATTGAAATTGCCTCTGATCATAGTCAGACCAACATTGCTACGACCCGTATTCGCACCGACAC
- relative integration efficiency (log2) [1]: -6.99 ± 0.21
- relative integration efficiency (log2) [2]: -6.41 ± 1.9

Sequence: ACATTTGTAAAAAAAACCATACGTTGATTTTACGAAACCATACGCTGAAATAATCACAACCATAACTTGAAATTGCCTCTGATCATAGTCAGACCAACATTGCTACGACCCGTATTCGCACCGACAC
- relative integration efficiency (log2) [1]: -6.63 ± 1.2
- relative integration efficiency (log2) [2]: < -10

Sequence: ACATTTGTAAAAAAAACCATACGTTGATTTTACGAAACCATACGCTGAAATAATCACAACCATACATTGAAATTGCCTCTGATCATAGTCAGACCAACATTGCTACGACCCGTATTCGCACCGACAC
- relative integration efficiency (log2) [1]: -6.97 ± 0.31
- relative integration efficiency (log2) [2]: -4.99 ± 1

Sequence: ACATTTGTAAAAACAACCATAAAATGATAATTACACCCATAAATTGATAATTATCACACCCATAAATTGATATTGCCTCTGATCATAGTCAGACCAACATTGCTACGACCCGTATTCGCACCGACAC
- relative integration efficiency (log2) [1]: 0.25 ± 0.023
- relative integration efficiency (log2) [2]: -0.286 ± 0.49

Sequence: ACATTTGTAAATAAAACCATACGTTGATTTTACGAAACCATACGCTGAAATAATCACACCCATAAATTGATATTGCCTCTGATCATAGTCAGACCAACATTGCTACGACCCGTATTCGCACCGACAC
- relative integration efficiency (log2) [1]: -6.595 ± 0.05
- relative integration efficiency (log2) [2]: -4.7 ± 0.57

Sequence: ACATTTGTACATACAACCATAAAATGATAATTACACCCATAAATTGATAATTATCACACCCATAAATTGATATTGCCTCTGATCATAGTCAGACCAACATTGCTACGACCCGTATTCGCACCGACAC
- relative integration efficiency (log2) [1]: -0.312 ± 0.12
- relative integration efficiency (log2) [2]: -1.97 ± 0.36

Sequence: ACATTTGTACTAACAACCATAAAATGATAATTACACCCATAAATTGATAATTATCACACCCATAAATTGATATTGCCTCTGATCATAGTCAGACCAACATTGCTACGACCCGTATTCGCACCGACAC
- relative integration efficiency (log2) [1]: -1.43 ± 0.32
- relative integration efficiency (log2) [2]: -4.23 ± 0.45

Sequence: ACATTTGTAGAAAAAACCATACGTTGATTTTACGAAACCATACGCTGAAATAATCACACCCATAAATTGATATTGCCTCTGATCATAGTCAGACCAACATTGCTACGACCCGTATTCGCACCGACAC
- relative integration efficiency (log2) [1]: -6.62 ± 0.1
- relative integration efficiency (log2) [2]: -5.68 ± 1.4

Sequence: ACATTTGTAGATAAAACCATACGTTGATTTTACGAAACCATACGCTGAAATAATCACACCCATAAATTGATATTGCCTCTGATCATAGTCAGACCAACATTGCTACGACCCGTATTCGCACCGACAC
- relative integration efficiency (log2) [1]: -6.57 ± 0.4
- relative integration efficiency (log2) [2]: -5.26 ± 0.89

Sequence: ACATTTGTCAACCATAAAATGATAATTACACCCATAAATTGATAATTATCACACCCATAAATTGATATTGCCTCTGATCATAGTCAGACCAACATTGCTACGACCCGTATTCGCACCGACACTGACT
- relative integration efficiency (log2) [1]: -6.76 ± 0.31
- relative integration efficiency (log2) [2]: -4.8 ± 0.66

Sequence: ACATTTGTCGATACAACCATAAAACGATAATTACACCCATAAATGGATAATTATCACACCCAATTTAACTATAACGCTCTGATCATAGTCAGACCAACATTGCTACGACCCGTATTCGCACCGACAC
- relative integration efficiency (log2) [1]: -1.19 ± 0.15
- relative integration efficiency (log2) [2]: 1.85 ± 0.05

Sequence: ACATTTGTCGATACAACCATAAAACGATAATTACACCCATAAATGGATCATTATCACACCCAATTTAACTATAACGCTCTGATCATAGTCAGACCAACATTGCTACGACCCGTATTCGCACCGACAC
- relative integration efficiency (log2) [1]: -1.91 ± 0.19
- relative integration efficiency (log2) [2]: 0.741 ± 0.05

Sequence: ACATTTGTCGATACAACCATAAAACGATAATTACACCCATAAATTCATAATTATCACACCCAATTTAACTATAACGCTCTGATCATAGTCAGACCAACATTGCTACGACCCGTATTCGCACCGACAC
- relative integration efficiency (log2) [1]: -2.45 ± 0.33
- relative integration efficiency (log2) [2]: 1.06 ± 0.15

Sequence: ACATTTGTCGATACAACCATAAAACGATAATTACACCCATAAATTCATCATTATCACACCCAATTTAACTATAACGCTCTGATCATAGTCAGACCAACATTGCTACGACCCGTATTCGCACCGACAC
- relative integration efficiency (log2) [1]: -2.2 ± 0.19
- relative integration efficiency (log2) [2]: 1.48 ± 0.17

Sequence: ACATTTGTCGATACAACCATAAAACGATAATTACACCCATAAATTGATAATTATCACACCCAATTTAACTATAACGCTCTGATCATAGTCAGACCAACATTGCTACGACCCGTATTCGCACCGACAC
- relative integration efficiency (log2) [1]: -1.38 ± 0.25
- relative integration efficiency (log2) [2]: 2.07 ± 0.094

Sequence: ACATTTGTCGATACAACCATAAAACGATAATTACACCCATAAATTGATCATTATCACACCCAATTTAACTATAACGCTCTGATCATAGTCAGACCAACATTGCTACGACCCGTATTCGCACCGACAC
- relative integration efficiency (log2) [1]: -1.88 ± 0.3
- relative integration efficiency (log2) [2]: 1.9 ± 0.036

Sequence: ACATTTGTCGATACAACCATAAAATGATAATTACACCCATAAATGGATAATTATCACACCCAATTTAACTATAACGCTCTGATCATAGTCAGACCAACATTGCTACGACCCGTATTCGCACCGACAC
- relative integration efficiency (log2) [1]: -1.05 ± 0.18
- relative integration efficiency (log2) [2]: 1.69 ± 0.097

Sequence: ACATTTGTCGATACAACCATAAAATGATAATTACACCCATAAATGGATAATTATCACCCCCAATTTAACTATAACGCTCTGATCATAGTCAGACCAACATTGCTACGACCCGTATTCGCACCGACAC
- relative integration efficiency (log2) [1]: -1.38 ± 0.18
- relative integration efficiency (log2) [2]: 1.38 ± 0.025

Sequence: ACATTTGTCGATACAACCATAAAATGATAATTACACCCATAAATGGATCATTATCACACCCAATTTAACTATAACGCTCTGATCATAGTCAGACCAACATTGCTACGACCCGTATTCGCACCGACAC
- relative integration efficiency (log2) [1]: -1.61 ± 0.16
- relative integration efficiency (log2) [2]: 0.97 ± 0.063

Sequence: ACATTTGTCGATACAACCATAAAATGATAATTACACCCATAAATGGATCATTATCACCCCCAATTTAACTATAACGCTCTGATCATAGTCAGACCAACATTGCTACGACCCGTATTCGCACCGACAC
- relative integration efficiency (log2) [1]: -1.61 ± 0.32
- relative integration efficiency (log2) [2]: 1.19 ± 0.086

Sequence: ACATTTGTCGATACAACCATAAAATGATAATTACACCCATAAATTCATAATTATCACACCCAATTTAACTATAACGCTCTGATCATAGTCAGACCAACATTGCTACGACCCGTATTCGCACCGACAC
- relative integration efficiency (log2) [1]: -1.92 ± 0.14
- relative integration efficiency (log2) [2]: 1.2 ± 0.05

Sequence: ACATTTGTCGATACAACCATAAAATGATAATTACACCCATAAATTCATAATTATCACCCCCAATTTAACTATAACGCTCTGATCATAGTCAGACCAACATTGCTACGACCCGTATTCGCACCGACAC
- relative integration efficiency (log2) [1]: -1.83 ± 0.51
- relative integration efficiency (log2) [2]: 1.18 ± 0.19

Sequence: ACATTTGTCGATACAACCATAAAATGATAATTACACCCATAAATTCATCATTATCACACCCAATTTAACTATAACGCTCTGATCATAGTCAGACCAACATTGCTACGACCCGTATTCGCACCGACAC
- relative integration efficiency (log2) [1]: -2.26 ± 0.23
- relative integration efficiency (log2) [2]: 1.45 ± 0.14

Sequence: ACATTTGTCGATACAACCATAAAATGATAATTACACCCATAAATTCATCATTATCACCCCCAATTTAACTATAACGCTCTGATCATAGTCAGACCAACATTGCTACGACCCGTATTCGCACCGACAC
- relative integration efficiency (log2) [1]: -1.99 ± 0.23
- relative integration efficiency (log2) [2]: 1.54 ± 0.23

Sequence: ACATTTGTCGATACAACCATAAAATGATAATTACACCCATAAATTGATAATTATCACCCCCAATTTAACTATAACGCTCTGATCATAGTCAGACCAACATTGCTACGACCCGTATTCGCACCGACAC
- relative integration efficiency (log2) [1]: -0.936 ± 0.32
- relative integration efficiency (log2) [2]: 2.59 ± 0.2

Sequence: ACATTTGTCGATACAACCATAAAATGATAATTACACCCATAAATTGATCATTATCACACCCAATTTAACTATAACGCTCTGATCATAGTCAGACCAACATTGCTACGACCCGTATTCGCACCGACAC
- relative integration efficiency (log2) [1]: -1.31 ± 0.23
- relative integration efficiency (log2) [2]: 2.328 ± 0.013

Sequence: ACATTTGTCGATACAACCATAAAATGATAATTACACCCATAAATTGATCATTATCACCCCCAATTTAACTATAACGCTCTGATCATAGTCAGACCAACATTGCTACGACCCGTATTCGCACCGACAC
- relative integration efficiency (log2) [1]: -1.31 ± 0.19
- relative integration efficiency (log2) [2]: 2.13 ± 0.24

Sequence: ACATTTGTCGATACAACCATAAAATGATAATTACCACCCATAAATTGATAATTATCACACCCATTTAACTATAACGCTCTGATCATAGTCAGACCAACATTGCTACGACCCGTATTCGCACCGACAC
- relative integration efficiency (log2) [1]: -1.12 ± 0.076
- relative integration efficiency (log2) [2]: 1.62 ± 0.092

Sequence: ACATTTGTCGATACAACCATAAAATGATAATTACCACCCATACATTGATAATTATCACACCCATTTAACTATAACGCTCTGATCATAGTCAGACCAACATTGCTACGACCCGTATTCGCACCGACAC
- relative integration efficiency (log2) [1]: -2.37 ± 0.32
- relative integration efficiency (log2) [2]: 0.0639 ± 0.32

— the supplement of paper PMC10201428
